Experimental findings from patent US20090233319 are described below.

For this series, the target named is T1, recombinant ICAD protein, O00273.
T1 chain: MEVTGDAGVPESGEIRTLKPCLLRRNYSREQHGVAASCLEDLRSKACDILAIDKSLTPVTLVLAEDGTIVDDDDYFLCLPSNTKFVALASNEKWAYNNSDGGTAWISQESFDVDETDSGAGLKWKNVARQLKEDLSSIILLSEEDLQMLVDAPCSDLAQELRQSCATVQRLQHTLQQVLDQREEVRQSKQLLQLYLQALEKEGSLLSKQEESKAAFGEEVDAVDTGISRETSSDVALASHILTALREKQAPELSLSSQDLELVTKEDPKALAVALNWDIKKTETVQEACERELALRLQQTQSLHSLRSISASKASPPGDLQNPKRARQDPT

B1: purified caspase-14 from human cornified cells (heterodimer of large subunit 17 KDa and small subunit 11 KDa) (protein)
chain 1: SLEEEKYDMSGARLALILCVTKAREGSEEDLDALEHMFRQLRFESTMKRDPTAEQFQEELEKFQQAIDSREDPVSCAFVVLMAHGREGFLKGEDGEMVKLENLFEALNNKNCQALRAKPKVYIIQACRGEQRDPGETVGGD
chain 2: KDSPQTIPTYTDALHVYSTVEGYIAYRHDQKGSCFIQTLVDVFTKRKGHILELLTEVTRRMAEAELVQEGKARKTNPEIQSTLRKRLYLQ
B1: the “ICAD decomposition by caspase-14 in the presence of a kosmotropic salt (Western blot with anti-ICAD IgG)” value is “intact ICAD protein was reduced and the two major decomposition products were increased, thus indicating that purified caspase-14 has a limited decomposing effect on ICAD”; the “ICAD hydrolysis by caspase-14 in ordinary caspase assay buffer (Western blot with anti-ICAD IgG)” value was “showed absolutely no hydrolytic activity of the purified caspase-14 for ICAD”.
